# In patent US20080293632:
# Target: SHOX full length (Homo sapiens) (UniProt O15266)
# Assay: cell_activity
# Conditions: luciferase
# Sequence of SHOX full length (Homo sapiens) (O15266 whole entry): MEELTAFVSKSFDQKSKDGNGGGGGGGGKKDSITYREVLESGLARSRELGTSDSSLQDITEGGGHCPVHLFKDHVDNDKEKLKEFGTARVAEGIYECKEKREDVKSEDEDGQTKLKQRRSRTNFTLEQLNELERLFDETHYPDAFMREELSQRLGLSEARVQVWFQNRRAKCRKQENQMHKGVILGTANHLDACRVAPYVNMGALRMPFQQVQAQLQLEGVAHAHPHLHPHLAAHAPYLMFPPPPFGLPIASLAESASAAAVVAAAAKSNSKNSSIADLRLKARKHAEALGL
substance,measurement,setting,value
BNP 5' flanking region reporter (BNP for / BNP rev),activity (fold induction),"forward orientation, reverse 8-fold",10
p3XG reporter (SHOX binding site before SV40 core promoter),activity (fold induction),,2
